According to US20140294826A1 (TUFTS UNIVERSITY, published 2014):
Like-named read-outs stand apart in the source and are kept apart here.

T1: Botulinum neurotoxin serotype B (BoNT/B) holotoxin (Clostridium botulinum, UniProt P10844 2-1291)
T1 sequence: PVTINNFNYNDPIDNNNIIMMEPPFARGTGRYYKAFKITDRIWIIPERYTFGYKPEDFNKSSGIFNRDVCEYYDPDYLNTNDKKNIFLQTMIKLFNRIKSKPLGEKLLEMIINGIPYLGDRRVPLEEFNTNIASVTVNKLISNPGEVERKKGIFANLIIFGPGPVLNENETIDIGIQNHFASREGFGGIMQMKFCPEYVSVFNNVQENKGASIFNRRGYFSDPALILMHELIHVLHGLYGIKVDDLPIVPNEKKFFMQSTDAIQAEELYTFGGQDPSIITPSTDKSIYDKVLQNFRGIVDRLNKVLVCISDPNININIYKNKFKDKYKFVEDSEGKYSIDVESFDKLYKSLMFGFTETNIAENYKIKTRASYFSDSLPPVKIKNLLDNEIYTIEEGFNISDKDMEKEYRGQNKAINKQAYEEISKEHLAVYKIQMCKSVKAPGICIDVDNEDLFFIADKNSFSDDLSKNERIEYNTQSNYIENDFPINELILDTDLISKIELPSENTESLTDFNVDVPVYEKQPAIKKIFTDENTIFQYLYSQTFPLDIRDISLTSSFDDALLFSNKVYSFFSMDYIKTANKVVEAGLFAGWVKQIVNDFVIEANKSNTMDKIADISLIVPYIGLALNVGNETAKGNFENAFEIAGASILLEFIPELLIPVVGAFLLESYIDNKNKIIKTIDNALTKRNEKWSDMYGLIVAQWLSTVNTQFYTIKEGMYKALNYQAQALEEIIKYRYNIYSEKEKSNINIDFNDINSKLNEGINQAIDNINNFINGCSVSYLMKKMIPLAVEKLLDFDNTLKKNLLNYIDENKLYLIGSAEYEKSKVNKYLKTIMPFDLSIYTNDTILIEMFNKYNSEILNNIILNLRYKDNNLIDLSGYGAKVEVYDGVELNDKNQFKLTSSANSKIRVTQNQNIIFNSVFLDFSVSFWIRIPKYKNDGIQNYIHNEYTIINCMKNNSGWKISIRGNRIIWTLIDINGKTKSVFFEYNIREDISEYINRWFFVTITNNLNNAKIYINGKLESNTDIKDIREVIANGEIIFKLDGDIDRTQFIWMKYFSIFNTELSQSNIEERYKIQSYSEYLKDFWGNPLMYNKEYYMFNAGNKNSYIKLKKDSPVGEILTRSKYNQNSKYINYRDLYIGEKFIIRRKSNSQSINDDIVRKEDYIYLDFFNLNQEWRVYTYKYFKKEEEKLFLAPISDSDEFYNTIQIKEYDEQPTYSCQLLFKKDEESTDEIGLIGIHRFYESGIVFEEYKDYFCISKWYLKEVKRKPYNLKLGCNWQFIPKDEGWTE


What was measured:
[1] = target: Shiga toxin 1 (Stx1) (Escherichia coli O157:H7) (UniProt P08026); test: SPR, Stx1 immobilised
[2] = target: Shiga toxin 1 (Stx1) (Escherichia coli O157:H7) (UniProt P08026); test: cell-based or functional assay
[3] = target: Shiga toxin 1 (Stx1) (Escherichia coli O157:H7) (UniProt P08026); test: dilution ELISA, HRP-anti-E-tag
[4] = target: T1, Botulinum neurotoxin serotype B …; test: SPR; chip ligand for BoNT/B not described
[5] = target: Shiga toxin 1 (Stx1) (Escherichia coli O157:H7) (UniProt P08026)
[6] = target: Shiga toxin 1 (Stx1) (Escherichia coli O157:H7) (UniProt P08026); remark: listed apart in the source

Shiga toxin 1 (Stx1) (Escherichia coli O157:H7), sequence (P08026 23-315): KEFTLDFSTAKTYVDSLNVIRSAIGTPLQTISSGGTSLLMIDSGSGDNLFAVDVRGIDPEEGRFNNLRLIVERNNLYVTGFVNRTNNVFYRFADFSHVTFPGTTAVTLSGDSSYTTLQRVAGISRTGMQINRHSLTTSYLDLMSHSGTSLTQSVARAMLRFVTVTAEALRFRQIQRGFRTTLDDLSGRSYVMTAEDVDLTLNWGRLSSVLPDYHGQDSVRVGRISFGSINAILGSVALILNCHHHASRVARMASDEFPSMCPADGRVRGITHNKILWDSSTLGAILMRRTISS

| Binder | Kd [1] [nM] | IC50, Vero cell neutralization assay [2] [nM] | EC50 [3] [nM] | Kd [4] [nM] | EC50 (read off the curve) [5] [nM] | EC50 (read off the curve) [6] [nM] |
| --- | --- | --- | --- | --- | --- | --- |
| Stx-A4 (VHH) VHH: QVQLVESGGGLVQPGGSLRLSCAASGFTLGSYHIGWFRHPPGKEREGTSCLSSRGDYTKYAEAVKGRFTISRDNTKSTVYLQMNNLKPEDTGIYVCAAIRPVLSDSHCTLAARYNYWGQGTQVTVSS | 7.2 | > 330 | 30 | – | – | – |
| Stx2-H6 (VHH) VHH: QVQLVETGGGLVQPGGSLRLSCAASGFSLDPYVIGWFRQAPGKEREGVSCITSRAASRTSVDSVNERFTISRDNAKNTVDLHINNLKPEDSGVYYCAAVPPAKLPLFSLCRSLPAKYDYWGQGTQVTVSS | – | > 1000 | > 1000 | – | – | – |
| A5/D10 heterodimer VNA (designed binder) QVQLVESGGGLVQPGGSLRLSCAALEFTLEDYAIAWFRQAPGKEREGVSCISKSGVTKYTDSVKGRFTVARDNAKSTVILQMNNLRPEDTAVYNCAAVRPVFVDSVCTLATRYTYWGEGTQVTVSSAHHSEDPGGGGSGGGGSGGGGSQVQLVETGGLVQAGGSLRLSCAASGVPFSDYTMAWFRQAPGKEREVVARITWRGGGPYYGNSGNGRFAISRDIAKSMVYLHMDSLKPEDTAVYYCAASRLRPALASMASDYDYWGQGTQVSVSSEPKTPKPQ | 9.2 | 50 | 30 | – | – | – |
| ciB-A11 (VHH) VHH: QVQLVEGGGGLVQPGGALRLSCAASVFGMDYYYIGWVRQAPGKEREGVSCISNIGRTHYADSVKGRFTISRDNAKNTVYLQMNSLKPEDTAVYYCAAAPLVGNYCPASYEYESWGQGTQVTVSS | – | – | – | 0.84 | – | – |
| Stx2-G1 (VHH) VHH: QVQLVESGGGLVQPGESLRLSCVASASTFSTSLMGWVRQAPGKGLESVAEVRTTGGTFYAKSVAGRFTISRDNAKNTLYLQMNSLKAEDTGVYYCTAGAGPIATRYRGQGTQVTVSS | – | > 1000 | > 1000 | – | – | – |
| Stx1-D4 (VHH) VHH: QVQLVESGGGLVQAGGSLRLSCAASGRINGDYAMGWFRQAPGEEREFVAVNSWIGGSTYYTDSVKGRFTLSRDNAKNTLSLQMNSLKPEDTAVYYCAAGHYTDFPTYFKEYDYWGQGTQVTVSS | 0.128 | > 1000 | 0.5 | – | 0.5 | – |
| Stx1-A9 (VHH) VHH: QVQLVETGGGLAQAGDSLRLSCVEPGRTLDMYAMGWIRQAPGEEREFVASISGVGGSPRYADSVKGRFTISKDNTKSTIWLQMNSLKPEDTAVYYCAAGGDIYYGGSPQWRGQGTRVTVSS | 7.6 | 10 | 10 | – | – | – |
| ciB-A11/B5 heterodimer (designed binder) QVQLVEGGGGLVQPGGALRLSCAASVFGMDYYYIGWVRQAPGKEREGVSCISNIGRTHYADSVKGRFTISRDNAKNTVYLQMNSLKPEDTAVYYCAAAPLVGNYCPASYEYESWGQGTQVTVSSAHHSEDPSGGGGSGGGGSGGGGSQVQLVESGGGLVQPGGSLRLSCAASGQSLDNYIIGWFRQAPGKEREGVSCIDRTGTVTHYADSVKGRFTISTDNVKNTVYLEMNDLKPEDTATYFCAAERRWGVVSVCVISDYYFDSWGQGTQVTVSSAHHSEDPS | – | – | – | 5.3 | – | – |
| Stx2-G9 (VHH) VHH: QVQLVESGGGLVQPGGSLTLSCTASGFTLNSYKIGWFRQAPGKEREGVSCINSGGNLRSVEGRFTISRDNTKNTVSLHMDSLKPEDTGVYHCAAAPALNVFSPCVLAPRYDYWGQGTQVTVSS | – | > 1000 | > 1000 | – | – | – |
| G1/D10 heterodimer VNA (designed binder) QVQLVESGGGLVQPGESLRLSCVASASTFSTSLMGWVRQAPGKGLESVAEVRTTGGTFYAKSVAGRFTISRDNAKNTLYLQMNSLKAEDTGVYYCTAGAGPIATRYRGQGTQVTVSSAHHSEDPGGGGSGGGGSGGGGSQVQLVETGGLVQAGGSLRLSCAASGVPFSDYTMAWFRQAPGKEREVVARITWRGGGPYYGNSGNGRFAISRDIAKSMVYLHMDSLKPEDTAVYYCAASRLRPALASMASDYDYWGQGTQVSVSSEPKTPKPQ | – | > 100 | > 1000 | – | – | – |
| Stx2-D2 (VHH) VHH: QVQLVESGGGLVQPGGSLGLSCAMSGTTQDYSAVGWFRQAPGKEREGVSCISRSGRRTNYADSVRGRFTISRDNAKDTVYLQMNSLKPDDTAVYYCAARKTDMSDPYYVGCNGMDYWGKGTLVTVSS | – | – | > 1000 | – | – | – |
| Stx2-D10 (VHH) VHH: QVQLVETGGLVQAGGSLRLSCAASGVPFSDYTMAWFRQAPGKEREVVARITWRGGGPYYGNSGNGRFAISRDIAKSMVYLHMDSLKPEDTAVYYCAASRLRPALASMASDYDYWGQGTQVSVSS | – | > 1000 | > 1000 | – | – | – |
| ciB-B5 (VHH) VHH: QVQLVESGGGLVQPGGSLRLSCAASGQSLDNYIIGWFRQAPGKEREGVSCIDRTGTVTHYADSVKGRFTISTDNVKNTVYLEMNDLKPEDTATYFCAAERRWGVVSVCVISDYYFDSWGQGTQVTVSS | – | – | – | 0.97 | – | – |
| A9/A5/G1 heterotrimer VNA (designed binder) QVQLVETGGGLAQAGDSLRLSCVEPGRTLDMYAMGWIRQAPGEEREFVASISGVGGSPRYADSVKGRFTISKDNTKSTIWLQMNSLKPEDTAVYYCAAGGDIYYGGSPQWRGQGTRVTVSSEPKTPKPQGGGGSGGGGSGGGGSQVQLVESGGGLVQPGGSLRLSCAALEFTLEDYAIAWFRQAPGKEREGVSCISKSGVTKYTDSVKGRFTVARDNAKSTVILQMNNLRPEDTAVYNCAAVRPVFVDSVCTLATRYTYWGEGTQVTVSSAHHSEDPGGGGSGGGGSGGGGSQVQLVESGGGLVQPGESLRLSCVASASTFSTSLMGWVRQAPGKGLESVAEVRTTGGTFYAKSVAGRFTISRDNAKNTLYLQMNSLKAEDTGVYYCTAGAGPIATRYRGQGTQVTVSSAHHSEDP | 0.46 | 0.05 | 0.5 | – | – | 0.5 |
| Stx2-A6 (VHH) VHH: QVQLVESGGGLVQPGGSLKLSCAASGFTLADYVTVWFRQAPGKSREGVSCISSSRGTPNYADSVKGRATVSRNNANNTVYLQMNGLKPDDTAIYYCAAIRPARLRAYRECLSSQAEYDYWGQGTQVTVSS | – | – | > 1000 | – | – | – |
| Stx-A5 (VHH) VHH: QVQLVESGGGLVQPGGSLRLSCAALEFTLEDYAIAWFRQAPGKEREGVSCISKSGVTKYTDSVKGRFTVARDNAKSTVILQMNNLRPEDTAVYNCAAVRPVFVDSVCTLATRYTYWGEGTQVTVSS | 12.5 | 100 | 15 | – | – | – |
| A9/D4 heterodimer VNA (designed binder) QVQLVETGGGLAQAGDSLRLSCVEPGRTLDMYAMGWIRQAPGEEREFVASISGVGGSPRYADSVKGRFTISKDNTKSTIWLQMNSLKPEDTAVYYCAAGGDIYYGGSPQWRGQGTRVTVSSEPKTPKPQGGGGSGGGGSGGGGSQVQLVESGGGLVQAGGSLRLSCAASGRINGDYAMGWFRQAPGEEREFVAVNSWIGGSTYYTDSVKGRFTLSRDNAKNTLSLQMNSLKPEDTAVYYCAAGHYTDFPTYFKEYDYWGQGTQVTVSSEPKTPKPQ | 1.2 | 1 | 0.6 | – | 0.6 | – |
